B1: SEQ ID NO: 6: Segniliparus rotundus carboxylate reductase, N-terminal HIS tagged (protein, listed as Segniliparus rotundus)
chain: MTQSHTQGPQASAAHSRLARRAAELLATDPQAAATLPDPEVVRQATRPGLRLAERVDAILSGYADRPALGQRSFQTVKDPITGRSSVELLPTFDTITYRELRERATAIASDLAHHPQAPAKPGDFLASIGFISVDYVAIDIAGVFAGLTAVPLQTGATLATLTAITAETAPTLFAASIEHLPTAVDAVLATPSVRRLLVFDYRAGSDEDREAVEAAKRKIADAGSSVLVDVLDEVIARGKSAPKAPLPPATDAGDDSLSLLIYTSGSTGTPKGAMYPERNVAHFWGGVWAAAFDEDAAPPVPAINITFLPLSHVASRLSLMPTLARGGLMHFVAKSDLSTLFEDLKLARPTNLFLVPRVVEMLYQHYQSELDRRGVQDGTREAEAVKDDLRTGLLGGRILTAGFGSAPLSAELAGFIESLLQIHLVDGYGSTEAGPVWRDGYLVKPPVTDYKLIDVPELGYFSTDSPHPRGELAIKTQTILPGYYKRPETTAEVFDEDGFYLTGDVVAQIGPEQFAYVDRRKNVLKLSQGEFVTLAKLEAAYSSSPLVRQLFVYGSSERSYLLAVIVPTPDALKKFGVGEAAKAALGESLQKIARDEGLQSYEVPRDFIIETDPFTVENGLLSDARKSLRPKLKEHYGERLEAMYKELADGQANELRDIRRGVQQRPTLETVRRAAAAMLGASAAEIKPDAHFTDLGGDSLSALTFSNFLHDLFEVDVPVGVIVSAANTLGSVAEHIDAQLAGGRARPTFATVHGKGSTTIKASDLTLDKFIDEQTLEAAKHLPKPADPPRTVLLTGANGWLGRFLALEWLERLAPAGGKLITIVRGKDAAQAKARLDAAYESGDPKLAGHYQDLAATTLEVLAGDFSEPRLGLDEATWNRLADEVDFISHPGALVNHVLPYNQLFGPNVAGVAEIIKLAITTRIKPVTYLSTVAVAAGVEPSALDEDGDIRTVSAERSVDEGYANGYGNSKWGGEVLLREAHDRTGLPVRVFRSDMILAHQKYTGQVNATDQFTRLVQSLLATGLAPKSFYELDAQGNRQRAHYDGIPVDFTAESITTLGGDGLEGYRSYNVFNPHRDGVGLDEFVDWLIEAGHPITRIDDYDQWLSRFETSLRGLPESKRQASVLPLLHAFARPGPAVDGSPFRNTVFRTDVQKAKIGAEHDIPHLGKALVLKYADDIKQLGLL
modifications: N-terminal His tag
notes: Segniliparus rotundus carboxylate reductase, N-terminal HIS tagged
B2: SEQ ID NO: 7: Chromobacterium violaceum ω-transaminase, N-terminal HIS tagged (protein, listed as Chromobacterium violaceum)
chain: MQKQRTTSQWRELDAAHHLHPFTDTASLNQAGARVMTRGEGVYLWDSEGNKIIDGMAGLWCVNVGYGRKDFAEAARRQMEELPFYNTFFKTTHPAVVELSSLLAEVTPAGFDRVFYTNSGSESVDTMIRMVRRYWDVQGKPEKKTLIGRWNGYHGSTIGGASLGGMKYMHEQGDLPIPGMAHIEQPWWYKHGKDMTPDEFGVVAARWLEEKILEIGADKVAAFVGEPIQGAGGVIVPPATYWPEIERICRKYDVLLVADEVICGFGRTGEWFGHQHFGFQPDLFTAAKGLSSGYLPIGAVFVGKRVAEGLIAGGDFNHGFTYSGHPVCAAVAHANVAALRDEGIVQRVKDDIGPYMQKRWRETFSRFEHVDDVRGVGMVQAFTLVKNKAKRELFPDFGEIGTLCRDIFFRNNLIMRACGDHIVSAPPLVMTRAEVDEMLAVAERCLEEFEQTLKARGLA
modifications: N-terminal His tag
notes: Chromobacterium violaceum ω-transaminase, N-terminal HIS tagged

Key:
[1] = carboxylate reductase activity: N7-acetyl-7-aminoheptanoate to N7-acetyl-7-aminoheptanal (NADPH consumption, A340); format: biochemical; conditions: purified enzyme enhanced by sfp gene product, 2 mM N7-acetyl-7-aminoheptanoate, pH 7.5, room temperature, 20 min; against the empty vector control (FIG. 10)
Procedure: The activity of each of the N-terminal His-tagged carboxylate reductases of SEQ ID NOs: 3, 5, and 6 (see Examples 2 and 3, and FIG. 6) for converting N7-acetyl-7-aminoheptanoate to N7-acetyl-7-aminoheptanal was assayed in triplicate in a buffer composed of a final concentration of 50 mM HEPES buffer (pH=7.5), 2 mM N7-acetyl-7-aminoheptanoate, 10 mM MgCl2, 1 mM ATP, and 1 mM NADPH. The assays were initiated by adding purified carboxylate reductase and phosphopantetheine transferase or the empty vector control to the assay buffer containing the N7-acetyl-7-aminoheptanoate then incubated at room temperature for 20 min. The consumption of NADPH was monitored by absorbance at 340 nm.

[2] = carboxylate reductase activity: pimelate semialdehyde to heptanedial (NADPH consumption, A340); format: biochemical; conditions: purified enzyme enhanced by sfp gene product, 2 mM pimelate semialdehyde, pH 7.5, room temperature, 20 min; against the empty vector control (FIG. 11)
Procedure: The N-terminal His-tagged carboxylate reductase of SEQ ID NO: 6 (see Example 3 and FIG. 6) was assayed using pimelate semialdehyde as substrate. The enzyme activity assay was performed in triplicate in a buffer composed of a final concentration of 50 mM HEPES buffer (pH=7.5), 2 mM pimelate semialdehyde, 10 mM MgCl2, 1 mM ATP and 1 mM NADPH. The enzyme activity assay reaction was initiated by adding purified carboxylate reductase and phosphopantetheine transferase or the empty vector control to the assay buffer containing the pimelate semialdehyde and then incubated at room temperature for 20 min. The consumption of NADPH was monitored by absorbance at 340 nm.

[3] = carboxylate reductase activity: pimelate to pimelate semialdehyde (NADPH consumption, A340); format: biochemical; conditions: purified enzyme enhanced by sfp gene product, 2 mM pimelate, pH 7.5, room temperature, 20 min; against the empty vector control (FIG. 8)
Procedure: A nucleotide sequence encoding a HIS-tag was added to the nucleic acid sequences from Segniliparus rugosus and Segniliparus rotundus that encode the carboxylate reductases of SEQ ID NOs: 4 (EFV11917.1) and 6 (ADG98140.1), respectively (see FIG. 6), such that N-terminal HIS tagged carboxylate reductases could be produced. Each of the modified genes was cloned into a pET Duet expression vector along with a sfp gene encoding a HIS-tagged phosphopantetheine transferase from Bacillus subtilis, both under the T7 promoter. Each expression vector was transformed into a BL21[DE3] E. coli host and the resulting recombinant E. coli strains were cultivated at 37° C. in a 250 mL shake flask culture containing 50 mL LB media and antibiotic selection pressure, with shaking at 230 rpm. Each culture was induced overnight at 37° C. using an auto-induction media.
The pellet from each induced shake flask culture was harvested via centrifugation. Each pellet was resuspended and lysed via sonication, and the cell debris was separated from the supernatant via centrifugation. […]
Enzyme activity assays (i.e., from pimelate to pimelate semialdehyde) were performed in triplicate in a buffer composed of a final concentration of 50 mM HEPES buffer (pH=7.5), 2 mM pimelate, 10 mM MgCl2, 1 mM ATP and 1 mM NADPH. […] The consumption of NADPH was monitored by absorbance at 340 nm. […]

[4] = ω-transaminase activity, reverse direction: 7-aminoheptanoate to pimelate semialdehyde (L-alanine formation by RP-HPLC); format: biochemical; conditions: cell free extract, 10 mM 7-aminoheptanoate, 10 mM pyruvate, pH 7.5, 25° C., 4 h; against the empty vector control (FIG. 13)
Procedure: (§1) A nucleotide sequence encoding an N-terminal His-tag was added to the nucleic acid sequences from Chromobacterium violaceum, Pseudomonas syringae, Rhodobacter sphaeroides, and Vibrio fluvialis encoding the ω-transaminases of SEQ ID NOs: 7, 9, 10 and 12, respectively (see FIG. 6) such that N-terminal HIS tagged ω-transaminases could be produced. Each of the resulting modified genes was cloned into a pET21a expression vector under control of the T7 promoter and each expression vector was transformed into a BL21[DE3] E. coli host. The resulting recombinant E. coli strains were cultivated at 37° C. in a 250 mL shake flask culture containing 50 mL LB media and antibiotic selection pressure, with shaking at 230 rpm. Each culture was induced overnight at 16° C. using 1 mM IPTG.
(§2) The pellet from each induced shake flask culture was harvested via centrifugation. Each pellet was resuspended and lysed via sonication. The cell debris was separated from the supernatant via centrifugation and the cell free extract was used immediately in enzyme activity assays.
Enzyme activity assays in the reverse direction (i.e., 7-aminoheptanoate to pimelate semialdehyde) were performed in a buffer composed of a final concentration of 50 mM HEPES buffer (pH=7.5), 10 mM 7-aminoheptanoate, 10 mM pyruvate and 100 μM pyridoxyl 5′ phosphate. Each enzyme activity assay reaction was initiated by adding cell free extract of the ω-transaminase gene product or the empty vector control to the assay buffer containing the 7-aminoheptanoate and incubated at 25° C. for 4 h, with shaking at 250 rpm. The formation of L-alanine from pyruvate was quantified via RP-HPLC.

[5] = ω-transaminase activity: 7-aminoheptanol to 7-oxoheptanol (L-alanine formation by RP-HPLC); format: biochemical
Procedure: A nucleotide sequence encoding an N-terminal His-tag was added to the Chromobacterium violaceum, Pseudomonas syringae and Rhodobacter sphaeroides nucleic acids encoding the ω-transaminases of SEQ ID NOs: 7, 9 and 10, respectively (see FIG. 6) such that N-terminal HIS tagged ω-transaminases could be produced. The modified genes were cloned into a pET21a expression vector under the T7 promoter. Each expression vector was transformed into a BL21[DE3] E. coli host. Each resulting recombinant E. coli strain were cultivated at 37° C. in a 250 mL shake flask culture containing 50 mL LB media and antibiotic selection pressure, with shaking at 230 rpm. Each culture was induced overnight at 16° C. using 1 mM IPTG.
as §2
Enzyme activity assays in the reverse direction (i.e., 7-aminoheptanol to 7-oxoheptanol) were performed in a buffer composed of a final concentration of 50 mM HEPES buffer (pH=7.5), 10 mM 7-aminoheptanol, 10 mM pyruvate, and […] pyridoxyl 5′ phosphate. Each enzyme activity assay reaction was initiated by adding cell free extract of the ω-transaminase gene product or the empty vector control to the assay buffer containing the 7-aminoheptanol and then incubated at 25° C. for 4 h, with shaking at 250 rpm. The formation of L-alanine was quantified via RP-HPLC.

[6] = from the literature; cited from earlier work
[7] = ω-transaminase activity, forward direction: pimelate semialdehyde to 7-aminoheptanoate (pyruvate formation by RP-HPLC); format: biochemical; conditions: conclusion from reverse and forward assays of Example 1
Procedure: as §1, §2
Enzyme activity in the forward direction (i.e., pimelate semialdehyde to 7-aminoheptanoate) was confirmed for the transaminases of SEQ ID NO 9, SEQ ID NO 10 and SEQ ID NO 12. Enzyme activity assays were performed in a buffer composed of a final concentration of 50 mM HEPES buffer (pH=7.5), 10 mM pimelate semialdehyde, 10 mM L-alanine and 100 μM pyridoxyl 5′ phosphate. Each enzyme activity assay reaction was initiated by adding a cell free extract of the ω-transaminase gene product or the empty vector control to the assay buffer containing the pimelate semialdehyde and incubated at 25° C. for 4 h, with shaking at 250 rpm. The formation of pyruvate was quantified via RP-HPLC.

| acceptance of pimelate as substrate (NADPH consumption) [3] | Molecule | acceptance of N7-acetyl-7-aminoheptanoate as substrate (NADPH consumption) [1] | acceptance of pimelate semialdehyde as substrate, forming heptanedial (NADPH consumption) [2] | acceptance of 7-aminoheptanoate as substrate (conversion of pyruvate to L-alanine) [4] | acceptance of 7-aminoheptanol as substrate (conversion of pyruvate to L-alanine) ([5]; cell free extract, 10 mM 7-aminoheptanol, 10 mM pyruvate, pH 7.5, 25° C., 4 h, against the empty vector control (FIG. 17)) | acceptance of 7-oxoheptanol as substrate forming 7-aminoheptanol ([5]; concluded from the reversibility of the ω-transaminase activity (Example 1)) | activity on 7-aminoheptanoate (conversion to pimelate semialdehyde) [6] | reversibility of ω-transaminase activity: pimelate semialdehyde accepted, 7-aminoheptanoate synthesized [7] |
| --- | --- | --- | --- | --- | --- | --- | --- | --- |
| accepted pimelate as substrate | B1 | accepted N7-acetyl-7-aminoheptanoate as substrate | accepted pimelate semialdehyde as substrate | – | – | – | – | – |
| – | B2 | – | – | accepted 7-aminoheptanoate as substrate | accepted 7-aminoheptanol as substrate | accept 7-oxoheptanol as substrate and form 7-aminoheptanol | demonstrated analogous activity accepting 7-aminoheptanoic acid as amino donor | accepted pimelate semialdehyde as substrate and synthesized 7-aminoheptanoate as a reaction product |

Reference: patent publication US20160201097A1, “Materials and Methods of Producing 7-Carbon Monomers” (INVISTA North America S.á.r.l., priority 2014, published 2016)
